# Data published in paper PMC4681293.
# Target: IFP2.0 (Deinococcus radiodurans)
# Experiment: SEC
substance,measurement,value
IFP2.0,stoichiometry N,2
